Molecular target: SVGmu, modified Sindbis virus envelope glycoprotein (SEQ ID NO: 11) (Sindbis virus) (UniProt P03316)
Test: confocal imaging; anti-HA-biotin plus Cy5-streptavidin staining of GFP-vpr-labeled lentiviral particles on coverslips

Q: For “anti-HA-biotin antibody (Miltenyi Biotec)”, which fraction of GFP-labeled particles stained for SVGmu is on record?
A: The fraction of GFP-labeled particles stained for SVGmu was over 90%.
